Drawing on US20110045046A1, this text covers IC50 and Kd for 6 molecules.

Test [1] concerns the target HLA-A*0201 (human). The test is described as follows: MHC binding assay with purified MHC molecules.
In test [2] the target is HLA-A*0203 (human). The test is described as follows: MHC binding assay with purified MHC molecules.
For test [3], the target named is HLA-A*0202 (human). The test can be described thus: MHC binding assay with purified MHC molecules.
Test [4] deals with HLA-A*0206 (human). The test can be described thus: MHC binding assay with purified MHC molecules.
The target of test [5] is T1, H-2K^b class I MHC molecule (mouse).
T1 chain 1: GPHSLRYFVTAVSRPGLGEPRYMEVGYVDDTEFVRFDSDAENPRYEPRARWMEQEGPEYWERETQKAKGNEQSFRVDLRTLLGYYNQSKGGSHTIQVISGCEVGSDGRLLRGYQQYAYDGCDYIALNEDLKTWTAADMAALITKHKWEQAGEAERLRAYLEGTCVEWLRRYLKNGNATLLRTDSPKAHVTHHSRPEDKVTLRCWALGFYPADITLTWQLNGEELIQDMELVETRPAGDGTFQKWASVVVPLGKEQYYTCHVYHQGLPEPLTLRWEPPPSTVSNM
T1 chain 2: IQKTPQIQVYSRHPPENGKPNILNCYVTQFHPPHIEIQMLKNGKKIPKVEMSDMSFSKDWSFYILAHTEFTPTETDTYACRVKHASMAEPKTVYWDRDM
The test can be described thus: K^b binding capacity.

Test [6] deals with HLA-A*0201 (human). The test is described as follows: inhibition of binding of a radioiodinated peptide to the MHC molecule (50% inhibition; column headed KD).
Test [7] addresses HLA-A*0203 (human). The test is described as above.

Where no end group is shown, it is not given here. Side-chain parts run from the residue outwards.

One may read the IC50 as the concentration that gives 50% inhibition. Usually Kd stands for a measure of binding affinity in units of concentration. The low end stands for tighter binding, the high end for weaker binding.

In the case of TLTSCNTSV (modifications not checked), the IC50 in test [1] turned out to be 0.29 nM; in test [2], 13 nM; in test [3], 8.1 nM; in test [4], 15 nM.
ALASAAAAV (modifications not checked) [ALA(GALNAc-O-S)SAAAAV] returned an IC50 in test [4] of 81 nM.
AIIAS([GalNAc-Gal])FAAL [AIIA(β-Gal-[1->3]-α-GalNAc-O-serine)FAAL]: the IC50 in test [5] amounted to 7 nM.
Turning to TLTSCNTSV (modifications not checked) [TLT(GalNAc-O-S)CNTSV], the 50% inhibitory concentration (IC50) turned out to be 0.72 nM in test [1], 8.2 nM in test [2], 15 nM in test [3] and 24 nM in test [4].
Regarding ALASAAAAV (modifications not checked), the IC50 in test [4] was determined as 266 nM.
As to LLLLTVLTV (modifications not checked) [LLLL(Tn-T)LTV], the Kd in test [6] amounted to 1300 nM; in test [7], 4290 nM.
